These results are taken from patent publication US5910570.

Like-named read-outs stand apart in the source and are kept apart here.

Assay [1] addresses apomucin (deglycosylated mucin) prepared from bovine submaxillary mucin (bovine).
Assay [2] has as its target serine containing acceptor peptide ….
Assay [3] has as its target apomucin (deglycosylated mucin) prepared from bovine submaxillary mucin (bovine). The source holds these as a separate data set.
Assay [4] concerns the target serine containing acceptor peptide …. The source holds these as a separate data set.

“cloned full-length (membrane bound) bovine GalNAc-transferase expressed in Sf9 cells (enzyme)”: in assay [1], the Total activity (U), cell lysate was 16.2 U.
By Km is commonly meant the substrate concentration at which the rate is half of its maximum. For the substance “soluble, secreted recombinant bovine GalNAc-transferase (GalNAcTs) expressed in Sf9 cells (enzyme)”, the Km in assay [2] turned out to be 3.6 mM; in assay [4] it was 3.5 mM. The substance also came in with a specific activity in assay [3] of 2160 U/mg protein.
